Test results as given in patent US20250161428A1, “PREVENTING/TREATING PSEUDOMONAS AERUGINOSA INFECTION” (priority 2022, published 2025).

B1: 1B1: mouse IgM monoclonal antibody to the A-PS terminus; VH SEQ ID NO: 4, VL SEQ ID NO: 8 (antibody, V domains shown)
VH: DVKLVESGGGLVKVGGSLKISCAASGFPFSDYYMAWVGQTPEKRLELVAAINGDGGTTYYPDTVKGRFIISRDNAKNTLYLQMSSLRSEDTALYYCVRGRRITGTGAIDYWGQGTSVTVSS
VL: QIFLTQSPVILSASPGEKVTMTCSATSNISYMYRYQQKPGSSPKPWIYGTSNLASRVPARFSGSGSGTSYSLTISNMEAEDAATYYCQIYHSYPYTFGGGTKLEIK
B2: 3C4: mouse IgG2b monoclonal antibody to the A-PS terminus; VH SEQ ID NO: 22, VL SEQ ID NO: 26 (antibody, V domains shown)
VH: EVKLVESGGGLVQPGGSLRLSCATSGFTFTDYYMSWVRQPPGKALEWLGFIRNKANGYTTEYSASVKGRFTISRDNSQSILYLQMNTLRAEDSATYYCTRAIYYGYDGFAYWGQGTLVTVSA
VL: DAVMTQTPLSLPVSLGDQASISCRSSQSLENSNGNTYLNWYLQKPGQSPQLLIYRVSNRFSGVLDRFSGSGSGTDFTLKISRVEAEDLGVYFCLQVTHVPFTFGSGTKLEIK

How the values were obtained:
[1] = system: purified LPS antigens of P. aeruginosa strains; assay: ELISA binding of mAbs to purified LPS
Description: (§1) ELISA: The binding of anti-P. aeruginosa A-band terminal epitope mAbs and polyclonal sera to BSA conjugates, purified LPS and to whole cells was evaluated by ELISA as described previously.

[2] = system: killed whole cells of P. aeruginosa strains; assay: ELISA binding of mAbs to killed whole cells; details: for range of P. aeruginosa strains recognised: summary statement, serotype strains and clinical isolates
Description: FIGS. 11A, 11B, and 11C show ELISA analysis of binding of 1B1 (FIG. 11A), 3B8 (FIG. 11B), and 3C4 (FIG. 11C) purified monoclonal antibodies (mAbs) (all at 100 μg/ml) to killed whole cells of P. aeruginosa strains NRCC #'s 6678, 6668-70, 6954-60 and negative control strains M. catarrhalis 6541 and N. meningitidis 6263 (see Table 1 for full details of strains).
as §1

purified PAO1 LPS = assay: mAb competition ELISA; assay type: binding, P. aeruginosa; details: PAO1 LPS coated plates; 3C4 at 62.5 μg/ml
Description: (§2) The plate was washed and mAb 3C4 was added at a constant concentration (62.5 μg/ml). A secondary mAb specific for mAb 3C4 was added and absorbance was measured after a colour reagent was added (line with square markers). The absorbance obtained when 3C4 was added to the plate without 1B1 competition is shown by the line with a triangle marker.
as §2, with “to” for “to the”, “3B8” for “1B1”
mAb competition ELISA: Wells of Nunc Maxisorp EIA plates were coated with 1 μg of P. aeruginosa LPS in PBS overnight at 4° C. and then brought to RT before use. Plates were blocked with 1% BSA-PBS for 1 h at RT, and then wells were washed with PBS-T. One mAb (1B1 or 3B8) was titrated and added to the plate for 1 h at RT. Following washing with PBS-T, the second mAb (3C4) was added at a pre-determined concentration and allowed to incubate for 1 h at RT. Following washing with PBS-T, AP-labeled goat anti-mouse IgG2b (Southern Biotech) specific for mAb 3C4, diluted 1:250 in 1% BSA-PBS was added for 1 h at RT. The plates were then washed with PBS-T and developed with Phosphatase Substrate System (Kirkegaard and Perry Laboratories). After 60 min absorbance was measured at 405 nm using a microtiter plate reader.

| Molecule | recognition of purified LPS from A-band locus mutants PAO1 (wzy::Gm)(Δpa5457) and PAO1 (wzy::Gm)(Δpa5458) [1] | cross reactivity to a set of clinical isolates ([2]; killed whole cells, purified mAbs at 100 μg ml^−1) | cross reactivity to killed whole cells of A-band locus mutants and ATCC type strains of common clinical serotypes ([2]; purified mAbs at 100 μg/ml) | range of P. aeruginosa strains recognised [2] | epitope relation in competition ELISA with mAb 3C4 (purified PAO1 LPS) |
| --- | --- | --- | --- | --- | --- |
| B1 | could recognise | broad cross reactivity | the only mAb that was cross reactive | majority of P. aeruginosa strains tested were recognised | recognised a unique epitope compared to 3C4 |
| B2 |  |  |  | recognition restricted to the wt serotype 5 strains PAO1 BAA-47 and 5937 | recognised similar overlapping epitopes |
